The target of the data set is T1, DoeX (AsnC/Lrp family) (Halomonas elongata DSM 2581T, UniProt E1V7V9 1-158).
T1 sequence: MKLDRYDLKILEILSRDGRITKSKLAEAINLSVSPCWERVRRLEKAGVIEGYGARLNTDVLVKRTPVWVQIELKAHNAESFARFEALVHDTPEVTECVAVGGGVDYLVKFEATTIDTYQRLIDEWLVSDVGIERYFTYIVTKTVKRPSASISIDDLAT
In words: EMSA. A general note: In EMSA bound probe runs differently from free probe, usually more slowly.

The results in this text go back to paper PMC3187862.

B1: F3 (dsDNA)
DNA 1: AGAGGCAGCCGGATATCGGTGACATGATCGTTTGGCGAGCGATTTC
DNA 2: GAAATCGCTCGCCAAACGATCATGTCACCGATATCCGGCTGCCTCT
With B1, the binding result was “binds”.
